Drawing on article doi:10.1101/2021.08.16.456495 (bioRxiv, 2021), this text covers binding result and Kd for four molecules.

In test [1] the target is Transcobalamin (TC), B12-bound, as in the TC:TCblR complex (human, UniProt P20062). The test can be described thus: crystal structure.
Test [2] addresses B12-bound complex of transcobalamin (TC) and its receptor TCblR (Homo sapiens). The test can be described thus: MST.
In test [3] the target is Transcobalamin receptor TCblR (CD320), crystallization construct, as in the TC:TCblR complex (human, UniProt Q9NPF0). Kind of test: crystal structure.
Sequence of Transcobalamin receptor TCblR (CD320), crystallization construct, as in the TC:TCblR complex (Q9NPF0 53-171, one chain of several): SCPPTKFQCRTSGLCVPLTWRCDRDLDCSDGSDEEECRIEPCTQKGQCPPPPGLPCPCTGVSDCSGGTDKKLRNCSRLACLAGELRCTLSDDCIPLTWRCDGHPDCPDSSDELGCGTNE

Sequence of Transcobalamin (TC), B12-bound, as in the TC:TCblR complex (P20062 19-427, one chain of several): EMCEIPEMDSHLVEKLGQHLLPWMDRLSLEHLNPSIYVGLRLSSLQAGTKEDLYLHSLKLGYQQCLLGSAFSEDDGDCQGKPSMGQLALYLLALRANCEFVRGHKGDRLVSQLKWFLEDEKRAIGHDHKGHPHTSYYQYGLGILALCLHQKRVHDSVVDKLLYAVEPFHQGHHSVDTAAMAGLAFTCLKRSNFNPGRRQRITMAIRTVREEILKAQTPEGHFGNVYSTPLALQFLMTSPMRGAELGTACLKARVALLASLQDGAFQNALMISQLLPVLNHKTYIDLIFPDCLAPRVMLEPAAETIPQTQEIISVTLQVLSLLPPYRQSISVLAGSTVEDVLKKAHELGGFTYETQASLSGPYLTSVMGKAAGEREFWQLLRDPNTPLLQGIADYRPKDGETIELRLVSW
Sequence of B12-bound complex of transcobalamin (TC) and its receptor TCblR (Homo sapiens) (P20062 19-427 R227Q, chain 1 of 2): as the sequence (P20062 19-427, one chain of several) above, with R209Q counted along it
Sequence of B12-bound complex of transcobalamin (TC) and its receptor TCblR (Homo sapiens) (Q9NPF0 53-171, chain 2 of 2, further chain): as the sequence (Q9NPF0 53-171, one chain of several) above

B1: Nanobody TCNB11 (VHH)
VHH: QLQLVESGGGLVQAGGSLRLSCTASGRTGTMGWFRQGPGKEREFVASHKWVAGSTYYADSVKGRFTISRDNAKNTLYLQMNSLKSEDTAVYYCAASSQIFYGATTSIKDFNSWGKGTRVTVSS
Regarding B1, in test [1], the binding result was “binds”.

B2: Nanobody TCNB4 (VHH)
VHH: QRQLVESGGGLVQPGGSLRLSCAASGFTPGIYDIGWFRQAPGKEREGVSCISSRGSSTNYADSVKGRFIISRDNVKNTVYLQMNSLEPEDTAVYYCAAIYQPSNGCVLRPEYSYWGKGTPVTVSS
As for B2, binding in test [2] was put at a Kd of 5.2 nM. In addition, the binding result in test [1] and in test [3] was “binds” throughout.

B3: Nanobody TCNB26 (VHH)
VHH: QVQLVESGGGLVQAGESLRLSCAASGRTFAMAWFRQAPGKEREFVAVRGWLGVTTYYADSVKGRFTISRDNAKNTLDLQMNSLKPEDTAVYYCAAGQYSSSLYDRETEYNYWGQGTRVTVSS
As to B3, the dissociation constant (Kd) in test [2] amounted to 87.4 nM. The binding result in test [1] was “binds”.

B4: Nanobody TCNB34 (VHH)
VHH: QWQLVESGGGLVQPGGSLRLSCAASGSTFSSYAMGWYRQAPGKECELVAAISRAGGSTNYADSVKGRFTISRDNAKNTVYLQMNSLKPEDTAVYYCNAAAEGETGSNWSLCEEYDYWGKGTRVTVSS
For B4, in test [2], binding was put at a Kd of 12.8 nM. Further, the binding result in test [1] is “binds”.

One may read the Kd as the equilibrium constant for the complex coming apart. High values mean lower affinity, low ones higher affinity.
